Target: p53, recombinant (UniProt P04637 1-393)
Experiment: BLI

p53, recombinant, sequence (P04637 whole entry): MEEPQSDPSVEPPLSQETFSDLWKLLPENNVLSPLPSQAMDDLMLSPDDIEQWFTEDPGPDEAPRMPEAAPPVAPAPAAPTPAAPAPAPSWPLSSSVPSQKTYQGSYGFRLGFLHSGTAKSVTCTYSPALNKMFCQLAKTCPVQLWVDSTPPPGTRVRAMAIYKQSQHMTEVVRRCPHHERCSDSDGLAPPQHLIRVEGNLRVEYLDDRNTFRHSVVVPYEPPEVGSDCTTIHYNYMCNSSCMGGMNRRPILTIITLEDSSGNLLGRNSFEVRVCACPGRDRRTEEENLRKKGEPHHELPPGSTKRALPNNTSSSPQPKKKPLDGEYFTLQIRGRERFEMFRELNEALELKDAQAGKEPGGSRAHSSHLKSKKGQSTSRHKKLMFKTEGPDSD

- Kd: 14.5 nM
B1: recombinant HMGB1 B box (domain or fragment)
chain: KFKDPNAPKRPPSAFFLFCSEYRPKIKGEHPGLSIGDVAKKLGEMWNNTAADDKQPYEKKAAKLKEKYEKDIAAY
modifications: Limits not given; 88-162 is the usual B box construct of the source laboratory (Tracey).
